From patent US20230357367A1
Where two headings read alike, the source gives them in different places.

Assays:
Experiment in all cases: cell-based or functional assay
[1] = target: spike (SARS-CoV-2, D614G) (SARS-CoV-2) (UniProt P0DTC2)
[2] = target: spike (SARS-CoV-2, D614G) (SARS-CoV-2) (UniProt P0DTC2); remark: listed apart in the source
[3] = target: spike (SARS-CoV-2, D614G) (SARS-CoV-2) (UniProt P0DTC2); remark: listed apart in the source
[4] = target: spike (SARS-CoV-2, D614G) (SARS-CoV-2) (UniProt P0DTC2); remark: listed apart in the source
[5] = target: spike (SARS-CoV-2, D614G) (SARS-CoV-2) (UniProt P0DTC2); remark: listed apart in the source
[6] = target: SARS-CoV-2 Omicron BA.4/5+K444T Spike on pseudovirus (SARS-CoV-2)
[7] = target: spike (SARS-CoV-2, BA.1.1 P1162S) (SARS-CoV-2)
[8] = target: spike (SARS-CoV-2, BA.5.8 P1162L) (SARS-CoV-2)

sotrovimab VH/VL-hamIgG2a (antibody) gave an EC50, pseudovirus neutralization, Vero E6 [1] of 8.51 ng/mL.
Substance sotrovimab VH/VL-huIgG1-LS (antibody) has an EC80, pseudovirus neutralization, Vero E6, with isotype [2] of 69 ng/mL, an EC90, pseudovirus neutralization, Vero E6, with isotype [3] of 170 ng/mL and an EC50, pseudovirus neutralization, Vero E6 [1] of 35.2 ng/mL. It also gave an Emax, pseudovirus neutralization, Vero E6, with isotype (% neutralization) [4] of 98.3 and an EC50, pseudovirus neutralization, Vero E6, with isotype [5] of 14 ng/mL.
With Bebtelovimab (antibody) the Neutralization - IC50, pseudovirus [6] was 1220 ng/mL.
With bebtelovimab (antibody) the EC80, pseudovirus neutralization, Vero E6, with isotype [2] was 2.9 ng/mL, the EC90, pseudovirus neutralization, Vero E6, with isotype [3] was 11 ng/mL and the EC50, pseudovirus neutralization [7] was 0.12 ng/mL. For the same substance, the EC80, pseudovirus neutralization [7] was 1.4 ng/mL, the EC90, pseudovirus neutralization [7] was 6 ng/mL and the Emax, pseudovirus neutralization (% neutralization) [7] was 100. The EC50, pseudovirus neutralization [8] was 0.13 ng/mL, the EC80, pseudovirus neutralization [8] was 1.1 ng/mL and the EC90, pseudovirus neutralization [8] was 3.7 ng/mL. For the same substance, the Emax, pseudovirus neutralization (% neutralization) [8] was 99.9, the EC50, pseudovirus neutralization [1] was 0.57 ng/mL and the EC50, pseudovirus neutralization, TMPRSS2-Vero E6, with isotype [1] was 1.7 ng/mL. It also gave an EC50, pseudovirus neutralization, Vero E6, with isotype [1] of 0.64 ng/mL, an EC80, pseudovirus neutralization [1] of 4.9 ng/mL and an EC80, pseudovirus neutralization, TMPRSS2-Vero E6, with isotype [1] of 11 ng/mL. It also gave an EC80, pseudovirus neutralization, Vero E6, with isotype [1] of 2.7 ng/mL, an EC90, pseudovirus neutralization [1] of 18 ng/mL and an EC90, pseudovirus neutralization, TMPRSS2-Vero E6, with isotype [1] of 32 ng/mL. For the same substance, the EC90, pseudovirus neutralization, Vero E6, with isotype [1] was 6.1 ng/mL, the Emax, pseudovirus neutralization (% neutralization) [1] was 99.9 and the Emax, pseudovirus neutralization, TMPRSS2-Vero E6, with isotype (% neutralization) [1] was 99.4. The Emax, pseudovirus neutralization, Vero E6, with isotype (% neutralization) [1] was 99.4, the Emax, pseudovirus neutralization, Vero E6, with isotype (% neutralization) [4] was 99.7 and the EC50, pseudovirus neutralization, Vero E6, with isotype [5] was 0.29 ng/mL.
sotrovimab VH/VL-huIgG1 (antibody) was tested, and the EC50, pseudovirus neutralization, Vero E6 [1] was 27.9 ng/mL.
“Sotrovimab VH/VL (human IgG1 molecule expressing the same variable regions of Sotrovimab) (antibody)” showed a Neutralization - IC50, pseudovirus [6] of 304 ng/mL.
